From the nanobody polyreactivity screen of Harvey et al. (2022)

Experiment: yeast display, Sf9 membrane polyspecificity reagent, FACS + sequencing; frameworks hold sequencing errors
Method in brief: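 Polyreactivity labels are assigned by the sorting gate from which each nanobody was recovered. The gates were low and high (top ~1%), set on anti-HA fluorescence for expression and streptavidin fluorescence for reagent binding. Before sorting, galactose-induced (36–48 hours) yeast display cells were stained for 1 hour at 4 °C with 10% biotinylated, detergent-solubilized Sf9 membrane reagent.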

QVQLVESGGGLVQARGSLRLSCAASGLTFTVDAMGWYRQAPGKEREFVAAISYSAGRTYYADSVKGRFTISRDNAKNTVYLQMNSLKPADTAVYYCAAATYYSIYDYWGQGTQVTVSS
polyreactivity (PSR sort gate): high polyreactivity

QVQLVESGGGLVKAGGSLRLSCAASGLIFIAYDMGWYRQAPGKERELVAAISSSGGSTYYADSVKGRFTISRDNAKNTVYFQMNSLKPEDTAVYYCASDTTKLQGVEGDYWGQGTQGTVSS
polyreactivity (PSR sort gate): low polyreactivity

QVQLVESGGGLVQAGGSLRLSCAASGITFGWNVAMGWYRQAPGKERELVATITNGGSTKYADSVKGRFTISRDNAKNTVYLQMNSLKPEDTAVYYCAARVYHRFEWFHQYDYWGQGTQVTVSS
polyreactivity (PSR sort gate): high polyreactivity

QVQLVESGGGLVQAGGSLRLSCAASGSIINFNAMGWYRQQPGKERELDARINQGGGSTYYADSVKGRFTISRDNAKNTVYLQMNSLKPEDTAVYYCAAVRYVLRSPARYGYWGQGTQVTVSS
polyreactivity (PSR sort gate): low polyreactivity

QVQLVESGGGLVQAGGSLRLSSAASGGIFRYYAMGLYRQAPGKERELVAAITSSGTSTYYADSVKGRFTISRDYAKNTVYLQMNSLKPEDTAVYYCARVVRPTDGDYWGLGTQVTVSS
polyreactivity (PSR sort gate): high polyreactivity

QVQLVESGGGLVQAGGSLRLSCAASGNIFTKYAMGWYRQAPGKERELVAAITWSGGSTYYADSVKGRFTISRDNAKNTVDLQMNILKPEDTAVYYCATAHVFRRDKPYDYWGQGTQVTVSS
polyreactivity (PSR sort gate): high polyreactivity

QVQIVESGGGLVQAGGSLRLSCAASGRIYRYVMGWYRQAPGKERELVATITGSGGSTYYADSVKGRFTISRDNAKNTAYLQMNSLKPEDTAVYYCAAAGRGSWTTYRFDYWGLGTQVTVSS
polyreactivity (PSR sort gate): high polyreactivity

QFQLVESGGGLVQAGGSLRLSCAASGGTLYIYAMGWYRKAPGKERELVAAIRGRGGSTYADSVKGRFTISRDNAKNTVYLQMNSLKPVDTAVYYCAAYARQRSNTIYYDYWGQGTQVTVSS
polyreactivity (PSR sort gate): high polyreactivity

QVQLVESGGGLVQAGGSLRLSCAASGSTYLINAMGWYRQAPGNERELVAAISDSGGSTHYADSVKGRFTISRDHAINTVYLHMKSLNPEDTAVYYCAATIPTTLILYGYWGQGTQVTVSS
polyreactivity (PSR sort gate): low polyreactivity

QVQLVESGGGLVQAGGSLRLSCAASGSIFFYNTMGWYRQARGKERELVATINSDDSTYYADSVKGGFTISRDNAKNTVYIQMNSLKPEDTAVYYCNVRVKGGKLVAYDYWGQGTQVTLSS
polyreactivity (PSR sort gate): low polyreactivity

QVQLVESGGGLVQAGGSLRLRCAASGSTFYGNTMGWNRQAPGKERELVAAITWTGGRTYYADSVKGRFTISRDNAKNTVYLQMNSLIPEDTAVYYCARGASFYQKFYYWGQGTQVTVSS
polyreactivity (PSR sort gate): high polyreactivity

QVQLVESGGGLVQAGGSLRLSCAASGFIFADYAMGWYRQAHGKERELVAAITRSGGRTYYADSVKGRFTISRDTAKNTVYVQMNSLKPDDTAVYYCNAGYAHTYDYWGQGTQVTVSS
polyreactivity (PSR sort gate): high polyreactivity

QVHLEESWGGLVQAGGSLSISCAASGSIFRPNAMGWYRPAPGKERELVAAINKIGGRTYYADSVKGRFTISRDNAKNTVYLQMNSLKPEDTAVYYCNAGGGYHYWGQGTQVTVSS
polyreactivity (PSR sort gate): high polyreactivity

QVQLVESGGRLVQAGGSLRLSCAASGGTFGQYAMGWYRQAPGKERELVAAISRGGDSTYSADSVKGRFTISRDNAKNTVYLQMNSLKPADTAVYYCAAPGISYYSRYYYRTYDYWGQGTQVTVSS
polyreactivity (PSR sort gate): high polyreactivity

QVQLVESGGGLVQAGGSLRLSCAASGRIFRGYAMGWYRQAPGKEREFVAAITKNGGSTYYADSVKGRFTISRDNAKNTVYLQMNSLKPEDTAVYYCNAGTFTRRRGLDYWGQGTQVTVSS
polyreactivity (PSR sort gate): low polyreactivity

QVQLVESGGGLVQAGGSLRLSCASSGRTFWFYTMGWYRQAPGKERELVAAISSGGSTNYADSVKGRFTISRDNAKNTVYLQMNSLKPEDTAVYYCNKPPPNRGRYDYWGQGTQVTVSS
polyreactivity (PSR sort gate): low polyreactivity

QVQLVESGGGLVHAGGSLRLSCAASGRIFRSYAMGWYRQAPGKERELVAAITSRGGSTYYADYVKGRFTISRDNAKNTVYLQMNILKTEDTAVYYCAADSFRLGVAAWTRYNYWGQGTQVTVSS
polyreactivity (PSR sort gate): high polyreactivity

QVQLVDSGGGLVQAGGSLRLSCAASGFTFYANAMGWYRQAPGTERELVAALSRGVSPTYADSVKGRFTISRDNGKNTVYLEMNSLKPEDTAVYYCASDGNVIAQGYDYWGQGTQVTVSS
polyreactivity (PSR sort gate): low polyreactivity

QVQLVQSGGGLVQAGGSLRLSCAASGSIFDYNTMGWYRQAPGKERELVATISWSGDSTYYADSVKGRFTISRDNAKNTVYLQMNSLKPEDTAVYYCNADDPPGAPYYDSFDYRGDYWGQGTQVTVSS
polyreactivity (PSR sort gate): low polyreactivity

QVQLVESGGGLVQAGGSLRLSSAASGYTYYVYAMGWYRQAPGKERELVAAISGGSNTYYADSVKGRFTISRDNAKNTVYLQMNSRKPEDTAVFYCAKSSTTYRQRARYDYWGLGTQVTVSS
polyreactivity (PSR sort gate): high polyreactivity

QVQLQGSGGGLVQSGGSLRLSCAASGKIFDADIMGWYRQAPGKESELVASITHGGSTNYADSVKGRFTISRDNAKNNVYLQMNSLIQEDTAVYYCAAIAYPDIPTYFDYDSDCFYWSQGTQVTVSS
polyreactivity (PSR sort gate): high polyreactivity

QVQLVESGGGLVQAGGSLRLSCAASGTFAGNALGWYRQAPGKERELVASITTGVRTYYADSGKGRFTLSRDNAKNTVYLQMHCLKPEDTAVYYCAADRIRDLEFYYWGQGTQVTVSS
polyreactivity (PSR sort gate): low polyreactivity

QVHLVESGGGLVQAGGSLRLSCAASGGIFLENAMGWYRQAPGKERELVAAISYNGGRTYYADSVKGRFTISRDNAKNTVYLQMNSLKPEDTAVYYCNAASPYYDSWGQGTQVTVSS
polyreactivity (PSR sort gate): high polyreactivity

QVQLVESGGGLVQAGGSLRLSCAASGSTFVDNDMGWYRQAPGKERELVAAAITARGGSTYYADSVKGRFTISRDNAKNTVYLQMNSLKPEDTAVYYCAAGRPGELDYWGQGTQVTVSS
polyreactivity (PSR sort gate): low polyreactivity

QVHLVESGGGLVQAGGSLRLSSADSGRIFTTYVMGWYRQAPGQESELVAAISARGSTYYADSVKGRFTISRDNAKNTVYLQMNSLKPEDNAVYYCAAGHRLPVYYVYPRATYNYWRQGTQVTVSS
polyreactivity (PSR sort gate): low polyreactivity

QVQLVESGGGLVQAGGSLRLSCAASGRIIIGYVMGWYRQAPGKERELVATISYSGGSTYADSVKGRFTISRDNAKNTVYLQMNSLKPEDTAVYYCAARPYYRYYRYPYGYWGQGTQVTVSS
polyreactivity (PSR sort gate): high polyreactivity

QVQLVESGGGVVQAGGSLRLSCAASGRIFSVYAMVWYRQAPGKEREFVGSISWRGGRTYYADSVKGRFTISRDNAKNTVYLQMISLKPEDTAVYYCAAVSYPAVYGFDYWGQGTQVTVSS
polyreactivity (PSR sort gate): high polyreactivity

QVQLVESGGGLDQAGGCLRLSSAASGIIFYYNRMGCDRQAPGKERDLVADISGDGSTNYADSVKGRFTISRDNAKNTLYLQINSLKPDDTAFYYCNSDDIFRPRDDLYDYWGQGTQVTVSS
polyreactivity (PSR sort gate): low polyreactivity

QVQLVESGGGLVQAGGSLRLSCAASGSIFDVNAMGWYRQAPGKEREMVAAISDSGGSTYYADSVKGRFTISRDNAKNTVYLQMNSLKPEDTAVYYCNAVWSWYNYYDFDYWGQGSQVTVSS
polyreactivity (PSR sort gate): low polyreactivity

QVQHVESGGGLVQAGGSLRLSCAASGITFVPNAMGWYRQAHGKERELVAAITSGDSTNYADSVKGRFTISRDNAKNTVYLQMNSLKPEDTAVYYCAADSWAQRPNQGRVSLHYYWGQGTLVTVSS
polyreactivity (PSR sort gate): low polyreactivity

QVQLVESGGCLVQAGGSLRLSCADSGLTFTHYTKGWYRQAPGKVRELVAAITTSGGSTYYADSVKGRFTISRDNAKNTVYLQMNSLKPEDTAVYDCDSDVWYWTYIGEYWGQGTQVTVSS
polyreactivity (PSR sort gate): high polyreactivity

QVQLVESGGGLVQAGGSLRLSFAASGSTFSRYAMGWYRQAPGKERELVAAISSGGGTNYADSVKGRFTISRDNAKNTVYLQMNSLKPEDTSVYYRAAVTVDFLKGYGWWFWQISDFWGQVTQVTVSS
polyreactivity (PSR sort gate): low polyreactivity

QVQLVESGGGLVQAGGSLRLSCAASGSTFWKYAMGWYRQAPGKERELVASIRSGGSTYYADSVKGRFTISRDNAKNNVYLQMNSLKPEDTAVYYCNAMSRTVSHEADDYWGQGTQVTVSS
polyreactivity (PSR sort gate): high polyreactivity

QLQLEDSGGGLVQAGGILRLSFAASGFTFFYNAMRWYSQAPATEREFDAAISGRGGTTYYADSVKGRFTISRDNAKNTVYLQMNSVKPEDTAVYYCAARSVSTLRYTSGKLRYDYWGQGTQVTVSS
polyreactivity (PSR sort gate): high polyreactivity

QVQLVESGGGLVQAGGSLRLSCAASGFIFHRNAMGWYRPAPGKERELVASITKRGGNTYYADSVKGRFTISRDNAKNTVYLQMNSLKPEDTAVYYCATQLWGWDWKRDYWGQGTQVTVSS
polyreactivity (PSR sort gate): high polyreactivity

QVQLVESGGGLVQAGGSLRLSCAASRYIFDPNAMGWYRQAPGKERELVAAISGSGTSTYYADSVKGRFTISRDNAKNTVYLQMNSLKPEDTAVYYCAAAHDAGPVRYYYWGQGTQVSVSS
polyreactivity (PSR sort gate): low polyreactivity

QVQLVESGGGLVQAGGSLRLSCAASGFTFARYALGWYRQAPGKERELVAGITYRGGRTYYADSVKGRFTISRDNEKNTVYLQMNRLKPEDTAVYYCARYGPIKYYSWGQGTQVTVSS
polyreactivity (PSR sort gate): high polyreactivity

QVQLVESGGGLVQAGGSLRLSCAASGSIFDRYDMGWYRQAPGKERELVAVINWSGGTTYYADSVKGRFTISRDNAKNTVYLQMNSLKPEDTAVYYCAADGSKPYAMDYWGQGTQVTVSS
polyreactivity (PSR sort gate): high polyreactivity

QVQLVESGGGLVQAGGSLRLSCAASGSILQHYAMGWYRQAPGKERELVASISWTGGSTYYADSVKGRFTISRDNAKNTVYLQMNSLKPEDTAVYYCAARRYRYYSRGSWGQGTQVTVSS
polyreactivity (PSR sort gate): high polyreactivity

QDQLVESAGGLVQAGGSLRLSCAASGRTFRAYAMGWYRQAPGKAMELVAAISRNGGTTYYADSVKGRFTMSRDNAKNTVYLQMNSLKPEDTAVSYCNARAGTKTGLKSDYWGQGTQVTVSS
polyreactivity (PSR sort gate): high polyreactivity

QVQLVESGGRLVQAGGSLRLSCAASGRIFAAYAMGWYRQAPGKEREFVAGITRTGGSTYYADSVKGRFTISRDHAKNTVYFQMNSLKPEDTAVYYCAASLVYYGHAYNYWGQGTQVTVSS
polyreactivity (PSR sort gate): high polyreactivity

QVQLVESGGGLVQAGGSLRLSCAASGRIFYWNVMGWYRQAPGKERELVAAISSSGASTSYADSVKGRFTISRDNAKNTVYLQMNSLKPEDTAVYHCAARTRRNYRQYNYWGQGTQVTVSS
polyreactivity (PSR sort gate): high polyreactivity

QVQLVESGGGLVQAGGSLRLSCAASGITFGVYGMGWYRQAPGKERELVAAIDQSGDSTYYADSVKGRFTISRDNAKNTVYLQMNSLKPEDTAVYYCAAQSYDYWYDYDYWGQGTQVTVSS
polyreactivity (PSR sort gate): high polyreactivity
